Measured values: patent US20070099822A1, “Regulation of tissue mineralization and phosphate metabolism by asarm peptides” (priority 2003, published 2007)

Tested on: Male ICR-Swiss mice
Assay: Intraperitoneal administration of Hu-MEPE and PTH (1-34) into mice, serum and urine assays
Type: in vivo
Conditions: for serum phosphate: vehicle 11.94; for serum 1,25-dihydroxy vitamin-D3: vehicle 25.2; for serum alkaline phosphatase: vehicle 65.06
Experimental: Intraperitoneal administration of Hu-MEPE and PTH (1-34) into mice. Male ICR-Swiss mice were used as recipients for intraperitoneal administration (100 μl) of 0.1% phosphate-buffered saline/0.1% bovine serum albumin (vehicle) and experimental conditions (Hu-MEPE and PTH 1-34) dissolved in 100 μL of vehicle. Two separate (repeat) experiments were conducted consisting of four groups with 6 and 7 animals per group. The control group was administered with 100 μL of vehicle (Group-1). Group-2 consisted of animals administered with 0.8 μg/injection of parathyroid hormone (PTH 1-34). Group 3 were injected with 0.4 μg/injection of Hu-MEPE and Group-4 with 4 μg/injection of Hu-MEPE. On day one, three bolus injections were given at 0, 3 h, and 6 h. Serum samples were then collected via retro-orbital bleed one hour after the 6 h bolus administration. The next day or 30 hours after the first bolus a fourth bolus (same amount) was given and after 1 h the animals were sacrificed and serum prepared after cardiac exsanguination. The total amounts of PTH and MEPE administered over the 30 h were 80 μg/kg/30 h PTH 1-34, 40 μg/kg/30 h Hu-MEPE (MEPE-40) and 400 μg/kg/30 h Hu-MEPE (MEPE-400). Each group was placed in a separate metabolic cage and urine was collected for the 6-hour period. After the first 6-hour urine collection mice were replaced in thoroughly cleaned metabolic cages for the remaining 24 hours. The second 24-hour urine was collected immediately after the animals were sacrificed. The urine volumes for the second and first collections were measured. Collecting urine samples from large numbers of small mice over the time frame of the experiment was not feasible. Therefore, urine samples from each group (n=7) were pooled and volumes measured via a specially designed collecting duct in the metabolic cage. To ensure reproducibility the experiment was repeated twice (the same changes occurred). To calculate the fractional excretion of phosphate (FEP) the following equation was used: 100−(100×(1−(A/B))) where A=(urine phosphorus in mg/dL)×(serum creatinine in mg/dL) and B=(urine creatinine in mg/dL)×(serum phosphorus in mg/dL). To calculate renal phosphorus clearance (RPC) in mL/minute following computation was used: (urine phosphorus in mg/dL)×(urinary volume in mL)/((serum phosphorus in mg/dL)×(time of collection in minutes)). The phosphate excretion index (PEI) was calculated using the same method described by Shimada et al. (Cloning and characterization of FGF23 as a causative factor of tumor-induced osteomalacia, Proc Natl Acad Sci USA 98:6500-6505, 2001) using the following formula: ((urinary concentration of phosphorus in mg/dL)/(serum concentration of phosphorus in mg/dL))/(total urinary creatinine in mg).
Serum and urine assays. Serum and urine assays for phosphate, calcium, chloride, potassium, creatinine, glucose and alkaline phosphatase were accomplished using 96 well format KC4-spectrophotometer multiplate kinetic/end-point analyses using routine methods and diagnostic-kits Sigma-Diagnostics). Serum 1,25-dihydroxy vitamin-D3 levels were estimated using the method of Reinhardt, et al. (A microassay for 1,25-dihydroxyvitamin D not requiring high performance liquid chromatography: application to clinical studies, J Clin Endocrinol Metab 58:91-98, 1984). Analysis of data for fractional excretion of phosphate (FEP) was carried out following the same method described previously by Shimada et al. (Mutant FGF-23 responsible for autosomal dominant hypophosphatemic rickets is resistant to proteolytic cleavage and causes hypophosphatemia in vivo, Endocrinology 143:3179-82, 2002) for FGF23 bolus administration studies and by Nesbitt et al. (Crosstransplantation of kidneys in normal and Hyp mice: Evidence that the Hyp mouse phenotype is unrelated to an intrinsic renal defect, J Clin Invest 89:1453-59, 1992) for renal cross-transplantation experiments in Hyp mice.
Statistical methods. […]

B1: Hu-MEPE: purified insect expressed full-length recombinant human MEPE (Matrix Extracellular Phosphoglycoprotein) (protein)
chain: PTFQPQTEKTKQSCVEEQRQEEKNKDNIGFHHLGKRINQELSSKENIVQERKKDLSLSEASENKGSSKSQNYFTNRQRLNKEYSISNKENTHNGLRMSIYPKSTGNKGFEDGDDAISKLHDQEEYGAALIRNNMQHIMGPVTAIKLLGEENKENTPRNVLNIIPASMNYAKAHSKDKKKPQRDSQAQKSPVKSKSTHRIQHNIDYLKHLSKVKKIPSDFEGSGYTDLQERGDNDISPFSGDGQPFKDIPGKGEATGPDLEGKDIQTGFAGPSEAESTHLDTKKPGYNEIPEREENGGNTIGTRDETAKEADAVDVSLVEGSNDIMGSTNFKELPGREGNRVDAGSQNAHQGKVEFHYPPAPSKEKRKEGSSDAAESTNYNEIPKNGKGSTRKGVDHSNRNQATLNEKQRFPSKGKSQGLPIPSRGLDNEIKNEMDSFNGPSHENIITHGRKYHYVPHRQNNSTRNKGMPQGKGSWGRQPHSNRRFSSRRRDDSSESSDSGSSSESDGD
Question: Which urine phosphate (7 h, MEPE-40 i.p., vehicle 31.8) does the source give for B1 here?
Answer: 41.0 mg/dL

Question: And the “fractional excretion of phosphate (FEP)” value (7 h, MEPE-400, vehicle 7.8%)?
Answer: 14.43%

Question: And the urine phosphate (7 h, MEPE-400 i.p., vehicle 31.8)?
Answer: 56.1 mg/dL

Question: What about the serum phosphate (31 h, MEPE-40 (40 ug/kg/30 h) i.p., not statistically significant) of the same molecule?
Answer: 10.6 mg/dL

Question: What about the “serum 1,25-dihydroxy vitamin-D3” value (31 h, MEPE-40, pooled) of the same molecule?
Answer: 31.5 pg/mL

Question: What about the serum alkaline phosphatase (31 h, MEPE-40) of the same molecule?
Answer: 45.63 U/L

Question: And the “serum 1,25-dihydroxy vitamin-D3” value (31 h, MEPE-400, pooled)?
Answer: 45.05 pg/mL

Question: And the “fractional excretion of phosphate (FEP)” value (31 h, MEPE-400, vehicle 28.7%)?
Answer: 65.0%

Question: What about the serum alkaline phosphatase (31 h, MEPE-400) of the same molecule?
Answer: 46.31 U/L

Question: What about the “urine phosphate vs vehicle” value (31 h, low-dose MEPE-40) of the same molecule?
Answer: not significantly different

Question: What about the serum phosphate (31 hours, MEPE-400 (400 ug/kg/30 h) i.p.) of the same molecule?
Answer: 8.23 mg/dL

Question: And the urine phosphate (31 h second urine, MEPE400, vehicle 175.9)?
Answer: 297.4 mg/dL

Question: What about the “serum phosphate vs vehicle” value (after 7 hours, i.p., PTH and MEPE animals) of the same molecule?
Answer: no significant differences

Question: What about the “serum calcium vs vehicle” value (after 7 hours, PTH 80 ug/kg/30 h, low Hu-MEPE dose) of the same molecule?
Answer: not significantly different

Question: What about the FEP vs vehicle (low dose MEPE-40) of the same molecule?
Answer: not significantly different
